Measured values from patent publication US20240228572A1 (I2O THERAPEUTICS, published 2024).
*1 amine or outer side, *2 acyl side, *3 side chain or, on linkers, in order; H or OH if unused. Bridges are numbered along the chain shown (N, C = ends). Primed or numbered codes have the meaning given here. Where no end group is shown, it is not given here. Side-chain parts run from the residue outwards. [ ]: non-standard residue; d: D form. The star is where a group is joined. dpeg″ = spacer —[CO(CH2)O(CH2)2O(CH2)NH]—, O=C(COCCOCN[*:1])[*:2]; dpeg = —[CO(CH2)O(CH2)2O(CH2)NH]— spacer, O=C(COCCOCN[*:1])[*:2]; C20 diacid = O=C(O)CCCCCCCCCCCCCCCCCCC(=O)*; γGlu = O=C(O)[C@H](CCC(=O)[*:2])N[*:1]; NMeE = CN[C@@H](CCC(=O)O)C(=O)O; Aib = CC(C)(N)C(=O)O

B1: Compound A14 (peptide)
peptide: YSHGTFTSDYSKYLD[Aib]KYAQK([γGlu-γGlu-C20 diacid])FV[Aib]WLEDEPSSGAPPPS-OH
modifications: N-terminus assumed
SMILES: CC(C)C[C@H](NC(=O)[C@H](Cc1ccc(O)cc1)NC(=O)[C@H](CCCCN)NC(=O)[C@H](CO)NC(=O)[C@H](Cc1ccc(O)cc1)NC(=O)[C@H](CC(=O)O)NC(=O)[C@H](CO)NC(=O)[C@@H](NC(=O)[C@H](Cc1ccccc1)NC(=O)[C@@H](NC(=O)CNC(=O)[C@H](Cc1c[nH]cn1)NC(=O)[C@H](CO)NC(=O)[C@@H](N)Cc1ccc(O)cc1)[C@@H](C)O)[C@@H](C)O)C(=O)N[C@@H](CC(=O)O)C(=O)NC(C)(C)C(=O)N[C@@H](CCCCN)C(=O)N[C@@H](Cc1ccc(O)cc1)C(=O)N[C@@H](C)C(=O)N[C@@H](CCC(N)=O)C(=O)N[C@@H](CCCCNC(=O)CC[C@H](NC(=O)CC[C@H](NC(=O)CCCCCCCCCCCCCCCCCCC(=O)O)C(=O)O)C(=O)O)C(=O)N[C@@H](Cc1ccccc1)C(=O)N[C@H](C(=O)NC(C)(C)C(=O)N[C@@H](Cc1c[nH]c2ccccc12)C(=O)N[C@@H](CC(C)C)C(=O)N[C@@H](CCC(=O)O)C(=O)N[C@@H](CC(=O)O)C(=O)N[C@@H](CCC(=O)O)C(=O)N1CCC[C@H]1C(=O)N[C@@H](CO)C(=O)N[C@@H](CO)C(=O)NCC(=O)N[C@@H](C)C(=O)N1CCC[C@H]1C(=O)N1CCC[C@H]1C(=O)N1CCC[C@H]1C(=O)N[C@@H](CO)C(=O)O)C(C)C
B2: Compound A29 (peptide)
peptide: YSHGTFTSDYSKYLD[Aib]KYAQK([γGlu-γGlu-dpeg″-C20 diacid])FVKWLEEEPSSGAPPPS-OH
modifications: lactam 24-28; N-terminus assumed
SMILES: CC(C)C[C@@H]1NC(=O)[C@H](Cc2c[nH]c3ccccc23)NC(=O)[C@@H](NC(=O)[C@@H](NC(=O)[C@H](Cc2ccccc2)NC(=O)[C@H](CCCCNC(=O)CC[C@H](NC(=O)CC[C@H](NC(=O)COCCOCNC(=O)CCCCCCCCCCCCCCCCCCC(=O)O)C(=O)O)C(=O)O)NC(=O)[C@H](CCC(N)=O)NC(=O)[C@H](C)NC(=O)[C@H](Cc2ccc(O)cc2)NC(=O)[C@H](CCCCN)NC(=O)C(C)(C)NC(=O)[C@H](CC(=O)O)NC(=O)[C@H](CC(C)C)NC(=O)[C@H](Cc2ccc(O)cc2)NC(=O)[C@H](CCCCN)NC(=O)[C@H](CO)NC(=O)[C@H](Cc2ccc(O)cc2)NC(=O)[C@H](CC(=O)O)NC(=O)[C@H](CO)NC(=O)[C@@H](NC(=O)[C@H](Cc2ccccc2)NC(=O)[C@@H](NC(=O)CNC(=O)[C@H](Cc2c[nH]cn2)NC(=O)[C@H](CO)NC(=O)[C@@H](N)Cc2ccc(O)cc2)[C@@H](C)O)[C@@H](C)O)C(C)C)CCCCNC(=O)CC[C@@H](C(=O)N[C@@H](CCC(=O)O)C(=O)N2CCC[C@H]2C(=O)N[C@@H](CO)C(=O)N[C@@H](CO)C(=O)NCC(=O)N[C@@H](C)C(=O)N2CCC[C@H]2C(=O)N2CCC[C@H]2C(=O)N2CCC[C@H]2C(=O)N[C@@H](CO)C(=O)O)NC(=O)[C@H](CCC(=O)O)NC1=O
B3: Compound A13 (peptide)
peptide: YSHGTFTSDYSKYLDK([γGlu-γGlu-C20 diacid])KYAQEFV[Aib]WLEDEPSSGAPPPS-OH
modifications: N-terminus assumed
SMILES: CC(C)C[C@H](NC(=O)[C@H](Cc1ccc(O)cc1)NC(=O)[C@H](CCCCN)NC(=O)[C@H](CO)NC(=O)[C@H](Cc1ccc(O)cc1)NC(=O)[C@H](CC(=O)O)NC(=O)[C@H](CO)NC(=O)[C@@H](NC(=O)[C@H](Cc1ccccc1)NC(=O)[C@@H](NC(=O)CNC(=O)[C@H](Cc1c[nH]cn1)NC(=O)[C@H](CO)NC(=O)[C@@H](N)Cc1ccc(O)cc1)[C@@H](C)O)[C@@H](C)O)C(=O)N[C@@H](CC(=O)O)C(=O)N[C@@H](CCCCNC(=O)CC[C@H](NC(=O)CC[C@H](NC(=O)CCCCCCCCCCCCCCCCCCC(=O)O)C(=O)O)C(=O)O)C(=O)N[C@@H](CCCCN)C(=O)N[C@@H](Cc1ccc(O)cc1)C(=O)N[C@@H](C)C(=O)N[C@@H](CCC(N)=O)C(=O)N[C@@H](CCC(=O)O)C(=O)N[C@@H](Cc1ccccc1)C(=O)N[C@H](C(=O)NC(C)(C)C(=O)N[C@@H](Cc1c[nH]c2ccccc12)C(=O)N[C@@H](CC(C)C)C(=O)N[C@@H](CCC(=O)O)C(=O)N[C@@H](CC(=O)O)C(=O)N[C@@H](CCC(=O)O)C(=O)N1CCC[C@H]1C(=O)N[C@@H](CO)C(=O)N[C@@H](CO)C(=O)NCC(=O)N[C@@H](C)C(=O)N1CCC[C@H]1C(=O)N1CCC[C@H]1C(=O)N1CCC[C@H]1C(=O)N[C@@H](CO)C(=O)O)C(C)C

How the values were obtained:
[1] = target: human Glucagon receptor (GCGR) (human, UniProt P47871 26-477); test: cell-based or functional assay
[2] = target: human GLP-1 receptor (GLP-1R) (human, UniProt P43220 24-463); test: cell-based or functional assay
Chain of human GLP-1 receptor (GLP-1R) (P43220 24-463): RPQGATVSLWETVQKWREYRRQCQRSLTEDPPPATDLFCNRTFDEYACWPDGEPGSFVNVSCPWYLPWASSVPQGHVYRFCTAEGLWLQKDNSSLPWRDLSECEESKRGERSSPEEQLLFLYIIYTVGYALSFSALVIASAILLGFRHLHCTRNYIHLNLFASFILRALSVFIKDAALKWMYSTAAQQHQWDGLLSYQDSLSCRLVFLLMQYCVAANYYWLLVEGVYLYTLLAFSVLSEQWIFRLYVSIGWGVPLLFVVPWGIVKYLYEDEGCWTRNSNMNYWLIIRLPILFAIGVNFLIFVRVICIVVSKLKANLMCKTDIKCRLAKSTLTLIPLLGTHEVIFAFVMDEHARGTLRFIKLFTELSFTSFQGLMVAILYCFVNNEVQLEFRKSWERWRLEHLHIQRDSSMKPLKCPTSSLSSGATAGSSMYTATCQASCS

Binder	pEC50, cAMP accumulation [1]	pEC50, cAMP accumulation [2]
YSHGTFTSDYSKYLD[Aib]KK([γGlu-γGlu-dpeg-C20 diacid])AQEFV[Aib]WLEDEPSSGAPPPS-OH [Compound A4]	11.7 pEC50 (-log M)	–
YSHGTFTSDYSKYLK([γGlu-γGlu-dpeg-C20 diacid])[Aib]KYAQEFV[Aib]WLEDEPSSGAPPPS-OH [Compound A1]	11.5 pEC50 (-log M)	–
YSHGTFTSDYSKYLDK([γGlu-γGlu-dpeg-C20 diacid])KYAQEF[Aib]KWLEDEPSSGAPPPS-OH [Compound A9]	10.6 pEC50 (-log M)	< 9 pEC50 (-log M)
YSHGTFTSDYSKYLD[Aib]KYAK([γGlu-γGlu-dpeg-C20 diacid])EFV[Aib]WLEDEPSSGAPPPS-OH [Compound A5]	11.6 pEC50 (-log M)	–
YSHGTFTSDYSKYLDK([γGlu-γGlu-dpeg-C20 diacid])KYAEEFV[Aib]WLESEPSSGAPPPS-OH [Compound A23]	11.5 pEC50 (-log M)	< 9 pEC50 (-log M)
YSHGTFTSDYSKYLDK([γGlu-γGlu-dpeg-C20 diacid])KYAQEF[Aib]SWLEDEPSSGAPPPS-OH [Compound A10]	10.4 pEC50 (-log M)	< 9 pEC50 (-log M)
B1	11.2 pEC50 (-log M)	< 9 pEC50 (-log M)
YSHGTFTSDYSKYLDK([γGlu-γGlu-dpeg-C20 diacid])KYAQEFV[Aib]WLEKEPSSGAPPPS-OH [Compound A20]	12.1 pEC50 (-log M)	< 9 pEC50 (-log M)
YSHGTFTSDYSKYLDK([γGlu-γGlu-dpeg-C20 diacid])KYAQEFV[Aib]WLENEPSSGAPPPS-OH [Compound A16]	12.2 pEC50 (-log M)	< 9 pEC50 (-log M)
YSHGTFTSDYSKYLDK([γGlu-γGlu-dpeg″-C20 diacid])KYAEKFVKWLEDEPSSGAPPPS-OH (lactam 20-24) [Compound A21]	12.1 pEC50 (-log M)	< 9 pEC50 (-log M)
YSHGTFTSDYSKYLDK([γGlu-γGlu-dpeg-C20 diacid])KYAQEFV[Aib]WLEQEPSSGAPPPS-OH [Compound A17]	12.1 pEC50 (-log M)	< 9 pEC50 (-log M)
YSHGTFTSDYSKYLDK([γGlu-γGlu-dpeg″-C20 diacid])KYAEEFVKWLEDEPSSGAPPPS-OH (lactam 20-24) [Compound A12]	11.8 pEC50 (-log M)	< 9 pEC50 (-log M)
YSHGTFTSDYSKYLDK([γGlu-γGlu-dpeg-C20 diacid])KYAQEFV[Aib]WLESEPSSGAPPPS-OH [Compound A19]	12.1 pEC50 (-log M)	< 9 pEC50 (-log M)
YSHGTFTSDYSKYLDK([γGlu-γGlu-dpeg-C20 diacid])KYAQEFV[Aib]WLEDEPSSGAPPPS-OH [Compound A2]	12.5 pEC50 (-log M)	–
YSHGTFTSDYSKYLDK([γGlu-γGlu-dpeg-C20 diacid])KYAQEF[Aib]EWLEDEPSSGAPPPS-OH [Compound A8]	9.9 pEC50 (-log M)	< 9 pEC50 (-log M)
YSHGTFTSDYSKYLD[Aib]K([γGlu-γGlu-dpeg-C20 diacid])YAQEFV[Aib]WLEDEPSSGAPPPS-OH [Compound A3]	12.5 pEC50 (-log M)	–
YSHGTFTSDYSKYLDK([γGlu-γGlu-dpeg-C20 diacid])KYAQEFV[Aib]WLE[NMeE]EPSSGAPPPS-OH [Compound A18]	10.4 pEC50 (-log M)	< 9 pEC50 (-log M)
YSHGTFTSDYSKYLDK([γGlu-γGlu-dpeg-C20 diacid])KYAKEFV[Aib]WLESEPSSGAPPPS-OH [Compound A22]	11.7 pEC50 (-log M)	< 9 pEC50 (-log M)
YSHGTFTSDYSKYLDK([γGlu-γGlu-dpeg″-C20 diacid])KYAKEFVEWLEDEPSSGAPPPS-OH (lactam 20-24) [Compound A11]	11.7 pEC50 (-log M)	< 9 pEC50 (-log M)
B2	–	< 9 pEC50 (-log M)
B3	12 pEC50 (-log M)	< 9 pEC50 (-log M)
YSHGTFTSDYSKYLDK([γGlu-γGlu-dpeg-C20 diacid])KYAQEFV[Aib]WLEEEPSSGAPPPS-OH [Compound A15]	12.1 pEC50 (-log M)	< 9 pEC50 (-log M)
